The results in this text go back to PMC2778949.

This experiment has as its target Serum Resistance-Associated protein with C-terminal S tag. The experiment in a line: pull-down (sup/bound fractions, western blot with α-S tag), quantified. As to conditions: read off a plot. Background: A western blot detects proteins with antibodies after separation by electrophoresis.

For the substance “Apolipoprotein L-I, wild type, with C-terminal V5-His6 tag (from UniProt O14791-1) N386T; N387K; N388I; Y389Q”, where the note is “parent: est. 100”, the percent of parent is 5.5 % binding.
On to “apoL1 truncated mutant NNNY (9 C-terminal amino acids removed, human last four residues NNNY), C-terminal V5-His6 tag (from UniProt O14791-1) N386T; N387K; N388I; Y389Q”, for which the response (parent: est. 9) was 9.5 % binding.
